Results taken from patent US9279017B2.

Legend:
[1] = target: recombinant human GM-CSF (rhGM-CSF) (human) (UniProt P04141); test: SPR (BIAcore), rhGM-CSF immobilised, analyte 38.5 nM
[2] = target: recombinant human GM-CSF (rhGM-CSF) (human) (UniProt P04141); test: SPR (BIAcore), rhGM-CSF immobilised, analyte 347 nM
[3] = target: recombinant human GM-CSF (rhGM-CSF) (human) (UniProt P04141); test: SPR (BIAcore), rhGM-CSF immobilised, analyte 3120 nM
[4] = target: recombinant human GM-CSF (rhGM-CSF) (human) (UniProt P04141); test: SPR (BIAcore), rhGM-CSF immobilised, analyte 1040 nM
[5] = target: recombinant human GM-CSF (rhGM-CSF) (human) (UniProt P04141); test: SPR (BIAcore), rhGM-CSF immobilised, analyte 116 nM
[6] = target: recombinant human GM-CSF (rhGM-CSF) (human) (UniProt P04141); test: SPR (BIAcore), kinetic analysis, rhGM-CSF immobilised
[7] = target: recombinant human GM-CSF (rhGM-CSF) (human) (UniProt P04141)
[8] = target: recombinant human GM-CSF (rhGM-CSF) (human) (UniProt P04141); test: SPR (BIAcore), rhGM-CSF immobilised, analyte 12.8 nM

Ka [1]: 2.2e+08 M⁻¹
Kd [1]: 4.55 nM
koff [1]: 0.00444 s⁻¹
kon [1]: 975000 M⁻¹ s⁻¹
Ka [2]: 9.22e+07 M⁻¹
Kd [2]: 10.8 nM
koff [2]: 0.00477 s⁻¹
kon [2]: 440000 M⁻¹ s⁻¹
Ka [3]: 1.06e+07 M⁻¹
Kd [3]: 94.6 nM
koff [3]: 0.00514 s⁻¹
kon [3]: 54300 M⁻¹ s⁻¹
Ka [4]: 1.89e+07 M⁻¹
Kd [4]: 52.8 nM
koff [4]: 0.0046 s⁻¹
kon [4]: 87100 M⁻¹ s⁻¹
Ka [5]: 1.66e+08 M⁻¹
Kd [5]: 6.01 nM
koff [5]: 0.00464 s⁻¹
kon [5]: 772000 M⁻¹ s⁻¹
Kd [6]: 50 nM
inhibition of rhGM-CSF dependent proliferation of TF-1 cells [7]: 6 nM
Ka [8]: 3.25e+08 M⁻¹
Kd [8]: 3.07 nM
koff [8]: 0.00384 s⁻¹
kon [8]: 1.25e+06 M⁻¹ s⁻¹
B1: half-human SCA B32oN-45 (scFv)
scFv: ELQLVEQSGAALVKPGDSVKMSCKASGYPFTDYIVHWVKQSHGKSLDWIGYINPYSGDTKFNEKFKSKATLTVDKSSSTAYMEFSRLTSEDSAIYYCARSGLIAVYFDYWGQGTTVTVSSGGGGSGGGGSGGGGSELVMTQSPSSVSASVGDRVTIACRASQNIRNILNWYQQRPGKAPQLLIYAASNLQSGVPSRFSGSGSGTDFTLTINSLQPEDFATYYCQQSYSMPRTFGGGTKVEIKTGDYKDDDDK
